# Assay results as given in US20150306234.
# Changes are numbered by the printed parent chain.
# What was measured:
# BDD FVIII mutein S2206C = system: T1, BDD FVIII mutein S2206C
# T1 sequence: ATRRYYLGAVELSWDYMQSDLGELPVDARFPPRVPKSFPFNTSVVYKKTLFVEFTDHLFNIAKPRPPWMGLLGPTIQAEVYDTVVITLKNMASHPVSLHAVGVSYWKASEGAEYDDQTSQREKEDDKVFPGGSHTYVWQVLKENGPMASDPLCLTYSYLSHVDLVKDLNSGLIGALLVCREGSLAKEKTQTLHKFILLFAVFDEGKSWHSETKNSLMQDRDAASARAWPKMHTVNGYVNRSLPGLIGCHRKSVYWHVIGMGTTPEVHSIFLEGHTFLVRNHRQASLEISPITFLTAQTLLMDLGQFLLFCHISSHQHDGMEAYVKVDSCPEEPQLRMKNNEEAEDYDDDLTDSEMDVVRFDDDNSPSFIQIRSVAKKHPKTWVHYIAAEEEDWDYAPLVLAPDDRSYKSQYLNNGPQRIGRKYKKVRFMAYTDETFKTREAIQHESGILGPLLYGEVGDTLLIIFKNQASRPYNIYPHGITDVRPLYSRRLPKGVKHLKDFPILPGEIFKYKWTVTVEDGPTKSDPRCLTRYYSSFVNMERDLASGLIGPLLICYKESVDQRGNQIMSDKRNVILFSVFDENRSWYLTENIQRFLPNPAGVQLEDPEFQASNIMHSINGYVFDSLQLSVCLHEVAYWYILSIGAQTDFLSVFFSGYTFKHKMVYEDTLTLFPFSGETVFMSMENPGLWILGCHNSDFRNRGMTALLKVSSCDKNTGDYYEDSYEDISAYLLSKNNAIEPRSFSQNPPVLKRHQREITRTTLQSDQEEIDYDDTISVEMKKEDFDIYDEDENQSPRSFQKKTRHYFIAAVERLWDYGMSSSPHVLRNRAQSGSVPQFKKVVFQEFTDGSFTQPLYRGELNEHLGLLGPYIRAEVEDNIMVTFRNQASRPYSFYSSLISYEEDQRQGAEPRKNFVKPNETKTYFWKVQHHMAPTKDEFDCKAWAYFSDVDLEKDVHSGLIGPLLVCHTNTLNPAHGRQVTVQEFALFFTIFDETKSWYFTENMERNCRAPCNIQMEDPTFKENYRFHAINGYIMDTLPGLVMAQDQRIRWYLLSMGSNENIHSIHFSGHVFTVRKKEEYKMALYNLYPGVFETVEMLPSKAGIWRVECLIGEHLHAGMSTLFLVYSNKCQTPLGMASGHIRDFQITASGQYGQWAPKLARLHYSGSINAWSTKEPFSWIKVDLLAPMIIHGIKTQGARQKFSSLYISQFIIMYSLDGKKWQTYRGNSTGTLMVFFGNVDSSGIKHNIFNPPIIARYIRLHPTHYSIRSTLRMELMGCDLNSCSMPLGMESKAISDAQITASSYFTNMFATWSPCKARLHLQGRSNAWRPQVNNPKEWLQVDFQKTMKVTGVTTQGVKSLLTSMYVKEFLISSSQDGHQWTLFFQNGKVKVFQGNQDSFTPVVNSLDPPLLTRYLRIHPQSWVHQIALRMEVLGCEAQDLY
# BDD FVIII mutein S2186C = system: T2, BDD FVIII mutein S2186C
# T2 sequence: T1 sequence with S1292C, C1312S
substance,measurement,setting,value
"thrombin (Haematologic Technologies, Essex Junction, Vt.)","thrombin cleavage, SDS-PAGE with silver staining",BDD FVIII mutein S2206C,Thrombin digestion of the muteins and control produced the expected cleavage fragments.
same,"thrombin cleavage, SDS-PAGE with silver staining",BDD FVIII mutein S2186C,Thrombin digestion of the muteins and control produced the expected cleavage fragments.
